The source of these data is EP4786492A1.

In assay [1] the target is human delta-like ligand 3 (DLL3) on SHP77 cells (human) (UniProt Q9NYJ7). Kind of assay: FACS on SHP77 cells.
Assay [2] has as its target human DLL3 protein expressed on CHO-K1 recombinant cells (human DLL3 extracellular segment fused to EpCAM transmembrane and intracellular regions) (human) (UniProt Q9NYJ7). Kind of assay: FACS, CHO-K1 hDLL3 cells, 4 nM antibody. (In flow cytometry, cells or beads pass a laser one at a time.)
Assay [3] has the same target. Kind of assay: FACS, CHO-K1 hDLL3 cells, 20 nM antibody.
The target is the same in assay [4]. Kind of assay: FACS, CHO-K1 hDLL3 cells, 0.8 nM antibody.
Assay [5] shares this target. Kind of assay: FACS, CHO-K1 hDLL3 cells, 100 nM antibody.
For assay [6] the target is unchanged. Kind of assay: FACS, CHO-K1 hDLL3 cells, 0.16 nM antibody.
The target is the same in assay [7]. Kind of assay: FACS, CHO-K1 hDLL3 cells, 0.032 nM antibody.
The target is the same in assay [8]. Kind of assay: FACS, CHO-K1 hDLL3 cells, 0.0064 nM antibody.
For assay [9] the target is unchanged. Kind of assay: FACS, CHO-K1 hDLL3 cells, 0.00128 nM antibody.

Chain of human delta-like ligand 3 (DLL3) on SHP77 cells (human) (Q9NYJ7 27-618, stated change not applied): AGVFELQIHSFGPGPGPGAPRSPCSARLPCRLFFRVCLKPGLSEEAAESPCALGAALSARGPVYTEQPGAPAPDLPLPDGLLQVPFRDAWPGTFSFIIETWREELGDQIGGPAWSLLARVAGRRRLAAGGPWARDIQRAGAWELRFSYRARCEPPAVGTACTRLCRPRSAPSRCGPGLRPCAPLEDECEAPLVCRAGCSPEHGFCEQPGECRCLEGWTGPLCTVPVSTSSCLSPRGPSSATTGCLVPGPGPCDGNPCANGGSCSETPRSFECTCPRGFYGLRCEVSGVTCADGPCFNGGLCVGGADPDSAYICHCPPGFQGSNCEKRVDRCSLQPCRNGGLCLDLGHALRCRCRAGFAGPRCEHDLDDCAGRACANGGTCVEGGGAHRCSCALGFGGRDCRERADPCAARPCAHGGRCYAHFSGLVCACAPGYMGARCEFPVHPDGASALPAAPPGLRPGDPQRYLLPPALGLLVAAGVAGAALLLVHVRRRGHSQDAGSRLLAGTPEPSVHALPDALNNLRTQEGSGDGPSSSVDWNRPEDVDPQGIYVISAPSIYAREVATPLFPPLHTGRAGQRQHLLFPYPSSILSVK
Chain of human DLL3 protein expressed on CHO-K1 recombinant cells (human DLL3 extracellular segment fused to EpCAM transmembrane and intracellular regions) (human) (Q9NYJ7 other isoform, or with tags, fused parts or gaps limits assumed): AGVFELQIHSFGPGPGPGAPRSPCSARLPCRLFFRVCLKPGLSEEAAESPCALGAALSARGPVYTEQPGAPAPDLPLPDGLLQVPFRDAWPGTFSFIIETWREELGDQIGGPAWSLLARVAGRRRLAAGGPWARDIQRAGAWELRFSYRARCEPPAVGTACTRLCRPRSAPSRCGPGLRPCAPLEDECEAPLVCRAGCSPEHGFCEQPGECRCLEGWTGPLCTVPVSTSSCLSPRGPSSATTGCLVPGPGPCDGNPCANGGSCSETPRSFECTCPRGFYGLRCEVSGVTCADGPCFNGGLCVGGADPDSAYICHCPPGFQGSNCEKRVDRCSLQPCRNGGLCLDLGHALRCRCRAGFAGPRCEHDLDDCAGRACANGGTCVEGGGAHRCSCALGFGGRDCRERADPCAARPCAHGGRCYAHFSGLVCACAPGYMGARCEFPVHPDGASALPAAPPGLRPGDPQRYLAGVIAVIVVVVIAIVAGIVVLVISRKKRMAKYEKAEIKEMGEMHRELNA

B1: Hab009VL3aVH1-hFc (Fc fusion, part only; not given: Linker and human IgG1 Fc, not shown: a dimerising Fc or GST)
scFv, part: DIVMTQSPLSLPVTPGEPASISCRASQTISDYLHWYLQKSHQSPQLLIKYASQSISGVPDRFSGSGSGTDFTLKISRVEAEDVGVYYCQQGHSFPLTFGQGTKLEIKEVQLVQSGAEVKKPGASVKVSCKASGYTFTSYWMHWVRQAPGQRLEWMGTIYPGNSDTRYNQKFKDRVTITADTSASTAYMELSSLRSEDTAVYYCTRSYDYGDLDYWGQGTTVTVSS
In assay [1], B1 yielded an MFI at 0.00128 nM of 105 MFI, an MFI at 0.0064 nM of 128 MFI, an MFI at 0.032 nM of 196 MFI and an MFI at 0.16 nM of 396 MFI. In assay [1], the MFI at 0.8 nM turned out to be 673 MFI, the MFI at 4 nM is 769 MFI, the MFI at 20 nM was 852 MFI and the MFI at 100 nM was found to be 954 MFI. Further, the MFI in [2] came to 12800 MFI. For the same molecule, the MFI in [3] worked out at 13300 MFI. In assay [4], the MFI is 11800 MFI. Also, the MFI in [5] stood at 13400 MFI. In [6], the MFI worked out at 5730 MFI. Also, the MFI in [7] worked out at 1500 MFI. In addition, the MFI in assay [8] amounted to 458 MFI. In addition, in [9], the MFI is 204 MFI.
